According to publication PMC12394722, “Regulatory role of the N-terminal intrinsically disordered region of the DEAD-box RNA helicase DDX3X in selective RNA recognition”:

Assays:
MBP-FL DDX3X [1] = target: T1, MBP-FL DDX3X (human, UniProt O00571 1-662); experiment: EMSA; little to no shift; 1 mM ATP-Mg; EMSA: 20 mM K-phosphate pH 7.0, 125 mM KCl, 1 mM DTT, 0.005% Tween-20, 10% glycerol (1 mM ATP-Mg for MBP-FL/Core-C), gel at room temperature; ITC: 20 mM K-phosphate pH 7.0, 50 mM KCl, 25 C; NMR: 200 mM KCl (also 120 mM), 10 C, 50 uM; conditions: protein: recombinant, tags: N-terminal His6-MBP
RR-1 fragment [2] = target: T2, RR-1 fragment (human, UniProt O00571 31-61); experiment: NMR; EMSA: 20 mM K-phosphate pH 7.0, 125 mM KCl, 1 mM DTT, 0.005% Tween-20, 10% glycerol (1 mM ATP-Mg for MBP-FL/Core-C), gel at room temperature; ITC: 20 mM K-phosphate pH 7.0, 50 mM KCl, 25 C; NMR: 200 mM KCl (also 120 mM), 10 C, 50 uM; conditions: protein: recombinant, tags: His6-SUMO tag cleaved
RR-2 fragment [3] = target: T3, RR-2 fragment (human, UniProt O00571 73-102); experiment: as above; conditions: protein: recombinant, tags: His6-SUMO tag cleaved
RR-3 fragment [4] = target: T4, RR-3 fragment (human, UniProt O00571 106-127); experiment: NMR; smaller reduction than telomeric GQ; EMSA: 20 mM K-phosphate pH 7.0, 125 mM KCl, 1 mM DTT, 0.005% Tween-20, 10% glycerol (1 mM ATP-Mg for MBP-FL/Core-C), gel at room temperature; ITC: 20 mM K-phosphate pH 7.0, 50 mM KCl, 25 C; NMR: 200 mM KCl (also 120 mM), 10 C, 50 uM; conditions: protein: recombinant; tags: His6-SUMO tag cleaved; G4 monomer
T4 chain: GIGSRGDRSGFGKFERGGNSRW

DDX3X N-IDR [5] = target: T5, DDX3X N-IDR (human, UniProt O00571 1-132); experiment: ITC; 50 mM KCl; EMSA: 20 mM K-phosphate pH 7.0, 125 mM KCl, 1 mM DTT, 0.005% Tween-20, 10% glycerol (1 mM ATP-Mg for MBP-FL/Core-C), gel at room temperature; ITC: 20 mM K-phosphate pH 7.0, 50 mM KCl, 25 C; NMR: 200 mM KCl (also 120 mM), 10 C, 50 uM; conditions: protein: recombinant; tags: His6-SUMO tag cleaved (Ulp1); G4 monomer
DDX3X N-IDR [6] = target: T5, DDX3X N-IDR; experiment: NMR; EMSA: 20 mM K-phosphate pH 7.0, 125 mM KCl, 1 mM DTT, 0.005% Tween-20, 10% glycerol (1 mM ATP-Mg for MBP-FL/Core-C), gel at room temperature; ITC: 20 mM K-phosphate pH 7.0, 50 mM KCl, 25 C; NMR: 200 mM KCl (also 120 mM), 10 C, 50 uM; conditions: protein: recombinant, tags: His6-SUMO tag cleaved (Ulp1)
MBP-Core-C DDX3X = MBP-Core-C DDX3X (human, UniProt O00571 132-662); experiment: EMSA; 1 mM ATP-Mg; EMSA: 20 mM K-phosphate pH 7.0, 125 mM KCl, 1 mM DTT, 0.005% Tween-20, 10% glycerol (1 mM ATP-Mg for MBP-FL/Core-C), gel at room temperature; ITC: 20 mM K-phosphate pH 7.0, 50 mM KCl, 25 C; NMR: 200 mM KCl (also 120 mM), 10 C, 50 uM; conditions: protein: recombinant, tags: N-terminal His6-MBP, label: 5'-FAM
MBP-FL DDX3X [7] = target: T1, MBP-FL DDX3X; experiment: as above; conditions: protein: recombinant, tags: N-terminal His6-MBP, label: 5'-FAM
DDX3X N-IDR [8] = target: T5, DDX3X N-IDR; experiment: EMSA; 125 mM KCl; EMSA: 20 mM K-phosphate pH 7.0, 125 mM KCl, 1 mM DTT, 0.005% Tween-20, 10% glycerol (1 mM ATP-Mg for MBP-FL/Core-C), gel at room temperature; ITC: 20 mM K-phosphate pH 7.0, 50 mM KCl, 25 C; NMR: 200 mM KCl (also 120 mM), 10 C, 50 uM; conditions: protein: recombinant, tags: His6-SUMO tag cleaved (Ulp1)
RR-1 fragment [9] = target: T2, RR-1 fragment; experiment: NMR; little to no change; EMSA: 20 mM K-phosphate pH 7.0, 125 mM KCl, 1 mM DTT, 0.005% Tween-20, 10% glycerol (1 mM ATP-Mg for MBP-FL/Core-C), gel at room temperature; ITC: 20 mM K-phosphate pH 7.0, 50 mM KCl, 25 C; NMR: 200 mM KCl (also 120 mM), 10 C, 50 uM; conditions: protein: recombinant, tags: His6-SUMO tag cleaved
RR-2 fragment [10] = target: T3, RR-2 fragment; experiment: as above; conditions: protein: recombinant, tags: His6-SUMO tag cleaved
RR-3 fragment [11] = target: T4, RR-3 fragment; experiment: as above; conditions: protein: recombinant, tags: His6-SUMO tag cleaved
RR-3 fragment [12] = target: T4, RR-3 fragment; experiment: NMR; EMSA: 20 mM K-phosphate pH 7.0, 125 mM KCl, 1 mM DTT, 0.005% Tween-20, 10% glycerol (1 mM ATP-Mg for MBP-FL/Core-C), gel at room temperature; ITC: 20 mM K-phosphate pH 7.0, 50 mM KCl, 25 C; NMR: 200 mM KCl (also 120 mM), 10 C, 50 uM; conditions: protein: recombinant; tags: His6-SUMO tag cleaved; parallel G4, dimer of 2 strands
DDX3X N-IDR [13] = target: T5, DDX3X N-IDR; experiment: ITC; 50 mM KCl; dimer concentration; EMSA: 20 mM K-phosphate pH 7.0, 125 mM KCl, 1 mM DTT, 0.005% Tween-20, 10% glycerol (1 mM ATP-Mg for MBP-FL/Core-C), gel at room temperature; ITC: 20 mM K-phosphate pH 7.0, 50 mM KCl, 25 C; NMR: 200 mM KCl (also 120 mM), 10 C, 50 uM; conditions: protein: recombinant; tags: His6-SUMO tag cleaved (Ulp1); parallel G4, dimer of 2 strands
DDX3X N-IDR [14] = target: T5, DDX3X N-IDR; experiment: EMSA; little to no shift; 125 mM KCl; EMSA: 20 mM K-phosphate pH 7.0, 125 mM KCl, 1 mM DTT, 0.005% Tween-20, 10% glycerol (1 mM ATP-Mg for MBP-FL/Core-C), gel at room temperature; ITC: 20 mM K-phosphate pH 7.0, 50 mM KCl, 25 C; NMR: 200 mM KCl (also 120 mM), 10 C, 50 uM; conditions: protein: recombinant; tags: His6-SUMO tag cleaved (Ulp1); label: 3'-FAM
DDX3X N-IDR [15] = target: T5, DDX3X N-IDR; experiment: NMR; 200 mM KCl; EMSA: 20 mM K-phosphate pH 7.0, 125 mM KCl, 1 mM DTT, 0.005% Tween-20, 10% glycerol (1 mM ATP-Mg for MBP-FL/Core-C), gel at room temperature; ITC: 20 mM K-phosphate pH 7.0, 50 mM KCl, 25 C; NMR: 200 mM KCl (also 120 mM), 10 C, 50 uM; conditions: protein: recombinant; tags: His6-SUMO tag cleaved (Ulp1); label: 5'-FAM in EMSA; G4, heterogeneous
[16] = parallel G4, dimer of 2 strands

T3 sequence (O00571 73-102): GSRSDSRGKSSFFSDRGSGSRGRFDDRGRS
T1 sequence (O00571 whole entry, the tested form may be a part): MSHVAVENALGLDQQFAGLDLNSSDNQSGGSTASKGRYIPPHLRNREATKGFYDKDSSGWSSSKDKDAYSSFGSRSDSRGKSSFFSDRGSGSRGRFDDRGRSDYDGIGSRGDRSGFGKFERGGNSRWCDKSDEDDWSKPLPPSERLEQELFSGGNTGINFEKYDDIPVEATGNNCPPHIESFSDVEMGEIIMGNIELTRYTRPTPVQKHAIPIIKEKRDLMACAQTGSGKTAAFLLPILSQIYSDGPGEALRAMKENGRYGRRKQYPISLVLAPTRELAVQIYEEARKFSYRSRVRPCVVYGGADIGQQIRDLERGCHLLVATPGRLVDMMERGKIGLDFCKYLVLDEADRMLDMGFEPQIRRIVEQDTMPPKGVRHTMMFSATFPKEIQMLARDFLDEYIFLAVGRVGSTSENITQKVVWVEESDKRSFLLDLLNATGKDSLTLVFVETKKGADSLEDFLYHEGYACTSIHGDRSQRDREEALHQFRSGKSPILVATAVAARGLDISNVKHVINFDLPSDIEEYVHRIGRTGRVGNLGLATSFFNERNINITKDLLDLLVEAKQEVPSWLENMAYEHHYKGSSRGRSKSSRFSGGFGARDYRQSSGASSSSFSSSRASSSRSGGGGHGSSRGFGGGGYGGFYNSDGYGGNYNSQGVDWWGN
T5 sequence (O00571 1-132): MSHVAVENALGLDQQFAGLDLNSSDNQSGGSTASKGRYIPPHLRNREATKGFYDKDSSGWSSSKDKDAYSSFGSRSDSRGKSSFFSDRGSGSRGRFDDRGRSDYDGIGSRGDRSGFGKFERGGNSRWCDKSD
T2 sequence (O00571 31-61): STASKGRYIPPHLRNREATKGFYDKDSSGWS
Chain of MBP-Core-C DDX3X (O00571 132-662): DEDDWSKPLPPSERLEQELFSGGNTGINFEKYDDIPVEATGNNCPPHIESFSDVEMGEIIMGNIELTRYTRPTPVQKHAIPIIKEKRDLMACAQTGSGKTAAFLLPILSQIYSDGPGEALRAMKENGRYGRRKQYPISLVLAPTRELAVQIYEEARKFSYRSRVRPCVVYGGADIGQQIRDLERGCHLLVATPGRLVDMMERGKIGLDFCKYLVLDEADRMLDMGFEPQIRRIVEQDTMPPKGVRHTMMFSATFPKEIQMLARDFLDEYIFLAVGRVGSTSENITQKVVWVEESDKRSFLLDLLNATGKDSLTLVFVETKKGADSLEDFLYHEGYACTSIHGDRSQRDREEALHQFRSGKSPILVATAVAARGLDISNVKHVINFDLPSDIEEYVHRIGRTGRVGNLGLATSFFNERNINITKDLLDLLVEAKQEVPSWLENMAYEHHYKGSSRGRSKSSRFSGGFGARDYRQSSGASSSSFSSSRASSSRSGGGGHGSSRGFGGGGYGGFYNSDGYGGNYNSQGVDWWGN

B1: FAM-14mer tetraloop (structured_RNA)
RNA: GGCACUUCGGUGCC
B1: no binding (MBP-FL DDX3X [1]; label: 5'-FAM, hairpin).

B2: NRAS GQ RNA (structured_RNA)
RNA: UGUGGGAGGGGCGGGUCUGGGUGC
B2: binds (RR-1 fragment [2]; G4 monomer); binds (RR-2 fragment [3]; G4 monomer); binds (RR-3 fragment [4]). For the same binder, the Kd (DDX3X N-IDR [5]) was 1400 nM.

B3: MITF 7-31 (ssRNA)
RNA: AUACCUUGUUUAUAGUACCUUCUCU
B3: no binding (DDX3X N-IDR [6]; non-GQ).

B4: FAM-NRAS GQ RNA (structured_RNA)
RNA: UGUGGGAGGGGCGGGUCUGGGUGC
B4 gave a Kd (MBP-Core-C DDX3X; G4 monomer) of 201 ± 5 nM, a Kd (MBP-FL DDX3X [7]; G4 monomer) of 43 ± 4 nM and a Kd (DDX3X N-IDR [8]; label: 5'-FAM, G4 monomer) of 54 ± 12 nM.

B5: NRAS mutant RNA (ssRNA)
RNA: UGUAGAAAGAGCAGAUCUAGAUGC
B5: no binding (RR-1 fragment [9]; GQ abolished); no binding (RR-2 fragment [10]; GQ abolished); no binding (RR-3 fragment [11]; GQ abolished).

B6: FAM-NRAS mutant RNA (ssRNA)
RNA: UGUAGAAAGAGCAGAUCUAGAUGC
B6 showed a Kd (MBP-FL DDX3X [7]; GQ abolished) of 222 ± 9 nM and a Kd (DDX3X N-IDR [8]; label: 5'-FAM, GQ abolished) of 6000 ± 800 nM.

B7: GC-14mer dsRNA (NMR) (dsRNA)
RNA 1: GGGCGGGCCCGCCC
RNA 2: GGGCGGGCCCGCCC
B7: no binding (RR-1 fragment [9]; blunt, self-complementary); no binding (RR-2 fragment [10]; blunt, self-complementary); no binding (RR-3 fragment [11]; blunt, self-complementary).

B8: telomeric GQ RNA (structured_RNA)
RNA: UAGGGUUAGGGU
B8: binds (RR-1 fragment [2]; [16]); binds (RR-2 fragment [3]; [16]); binds (RR-3 fragment [12]). For the same binder, the Kd (DDX3X N-IDR [13]) was 3400 nM.

B9: ODC1 150-174 (structured_RNA)
RNA: AGUAGGGAGCGGCGUGCCGUGGGGC
With B9 the Kd (DDX3X N-IDR [8]; label: 5'-FAM in EMSA, G4, heterogeneous) was 1970 ± 230 nM.

B10: RAC1 53-77 (structured_RNA)
RNA: GCGGAGGGCGAGGCGGCGUGGACAG
B10 gave a Kd (DDX3X N-IDR [8]; label: 5'-FAM in EMSA, G4) of 510 ± 80 nM.

B11: FAM-telomeric GQ RNA (structured_RNA)
RNA: UAGGGUUAGGGU
For B11, the Kd (MBP-Core-C DDX3X; [16]) was 579 ± 69 nM, the Kd (MBP-FL DDX3X [7]; [16]) was 54 ± 14 nM and the Kd (DDX3X N-IDR [8]; label: 5'-FAM, parallel G4, dimer of 2 strands) was 1000 ± 200 nM.

B12: MITF 62-86 (structured_RNA)
RNA: GAAAGUAGAGGGAGGGAUAGUCUAC
B12: binds (DDX3X N-IDR [6]; G4).

B13: poly-U10 (ssRNA)
RNA: UUUUUUUUUU
B13: no binding (RR-1 fragment [9]); no binding (RR-2 fragment [10]); no binding (RR-3 fragment [11]).

B14: poly-U12 (ssRNA)
RNA: UUUUUUUUUUUU
B14: no binding (MBP-FL DDX3X [1]; label: 3'-FAM); no binding (DDX3X N-IDR [14]).

B15: ODC1 279-303 (structured_RNA)
RNA: GCUGACGGGCGCGGCGGGGGCGGCC
B15: binds (DDX3X N-IDR [15]).
